Experimental findings from patent publication US20230192886A1 (IMMATICS BIOTECHNOLOGIES, published 2023) are described below.

The experiment concerns the target PRAME-004 peptide presented by HLA-A*02 on target cells (peptide-loaded T2 cells); PRAME-004-presenting tumor … (human). The experiment can be described thus: cell-based or functional assay.

B1: TCR R17P1D7 (TCR, V domains shown)
V domain 1: QTVTQSQPEMSVQEAETVTLSCTYDTSESDYYLFWYKQPPSRQMILVIRQEAYKQQNATENRFSVNFQKAAKSFSLKISDSQLGDAAMYFCAYRWAQGGSEKLVFGKGTKLTVNP
V domain 2: DIYQTPRYLVIGTGKKITLECSQTMGHDKMYWYQQDPGMELHLIHYSYGVNSTEKGDLSSESTVSRIRTEHFPLTLESARPSHTSQYLCATELWSSGGTGELFFGEGSRLTVLE
As to B1, the “EC50 of IFNγ release, T2 cells loaded with PRAME-004 from 10 µM to 10 pM (FIG. 13)” value amounted to 1.83 nM.

B2: TCR R16P1E8 (TCR, V domains shown)
V domain 1: QKEVEQDPGPLSVPEGAIVSLNCTYSNSAFQYFMWYRQYSRKGPELLMYTYSSGNKEDGRFTAQVDKSSKYISLFIRDSQPSDSATYLCAMSEAAGNKLTFGGGTRVLVKP
V domain 2: EAGVAQSPRYKIIEKRQSVAFWCNPISGHATLYWYQQILGQGPKLLIQFQNNGVVDDSQLPKDRFSAERLKGVDSTLKIQPAKLEDSAVYLCASSYTNQGEAFFGQGTRLTVVE
For the molecule B2, the “EC50 of IFNγ release, T2 cells loaded with PRAME-004 from 10 µM to 10 pM (FIG. 12)” value is ~1 µM.
